This note sets out measurements from paper doi:10.1101/767665.

Read-outs that look alike come from different tables or passages of the source.

The target in assay [1] is heliorhodopsin 48C12 (actinobacterium (fosmid from freshwater lake Kinneret)). The experiment in a line: crystal structure.
Assay [2] has the same target. Description: crystal structure. This is another data set of the same source.

As a reminder, the stoichiometry N is the number of molecules, sites or subunits per partner or assembly. In the case of “heliorhodopsin 48C12 (from UniProt A0A2R4S913 1-256) (natural protein)”, the stoichiometry N in assay [1] and in assay [2] was 2 throughout.
